Measured values published in paper PMC3229823 (Virology, 2011).
Read-outs that look alike come from different tables or passages of the source.

Key:
[1] = target: the molecule itself; assay: SDS-resistant complexes on SDS-polyacrylamide gel, coomassie staining
[2] = target: the molecule itself

B1: MBP-Agno (17-71) (domain or fragment)
chain: TWSGTKKRAQRILIFLLEFLLDFCTGEDSVDGKKRQRHSGLTEQTYSALPEPKAT
Does B1 bind [1]?
Result: binds

B2: MBP-SV40 Agno (full length SV40 agnoprotein fused to MBP) (natural protein)
chain: MVLRRLSRQASVKVRRSWTESKKTAQRLFVFVLELLLQFCEGEDTVDGKRKKPERLTEKPES
Does B2 bind [2]?
Result: binds
